Target: human wild-type full-length CC chemokine receptor 5 (CCR5) (human) (UniProt P51681)

Row | Ca2+ flux in HEK-CCR5 cells, decrease of Emax against [6P4]CCL5 [%] | Substance
1 | 60 | [6P4]CCL5 D5K (ligand)
2 | 30 | [6P4]CCL5 D5A (ligand)
